Laboratory results: article PMC4460075, “ULK2 Ser 1027 Phosphorylation by PKA Regulates Its Nuclear Localization Occurring through Karyopherin Beta 2 Recognition of a PY-NLS Motif” (PLoS ONE, 2015)
Where a chain is given by its changes, count along the chain named. In names and notes the source's numbering stands. Blank lines part the entries; values can stand above or below the binder they belong to.

Biological target: T1, karyopherin beta 2 (Kapβ2), endogenous (human (endogenous in HEK293), UniProt Q92973 1-898)
T1 sequence (looked up): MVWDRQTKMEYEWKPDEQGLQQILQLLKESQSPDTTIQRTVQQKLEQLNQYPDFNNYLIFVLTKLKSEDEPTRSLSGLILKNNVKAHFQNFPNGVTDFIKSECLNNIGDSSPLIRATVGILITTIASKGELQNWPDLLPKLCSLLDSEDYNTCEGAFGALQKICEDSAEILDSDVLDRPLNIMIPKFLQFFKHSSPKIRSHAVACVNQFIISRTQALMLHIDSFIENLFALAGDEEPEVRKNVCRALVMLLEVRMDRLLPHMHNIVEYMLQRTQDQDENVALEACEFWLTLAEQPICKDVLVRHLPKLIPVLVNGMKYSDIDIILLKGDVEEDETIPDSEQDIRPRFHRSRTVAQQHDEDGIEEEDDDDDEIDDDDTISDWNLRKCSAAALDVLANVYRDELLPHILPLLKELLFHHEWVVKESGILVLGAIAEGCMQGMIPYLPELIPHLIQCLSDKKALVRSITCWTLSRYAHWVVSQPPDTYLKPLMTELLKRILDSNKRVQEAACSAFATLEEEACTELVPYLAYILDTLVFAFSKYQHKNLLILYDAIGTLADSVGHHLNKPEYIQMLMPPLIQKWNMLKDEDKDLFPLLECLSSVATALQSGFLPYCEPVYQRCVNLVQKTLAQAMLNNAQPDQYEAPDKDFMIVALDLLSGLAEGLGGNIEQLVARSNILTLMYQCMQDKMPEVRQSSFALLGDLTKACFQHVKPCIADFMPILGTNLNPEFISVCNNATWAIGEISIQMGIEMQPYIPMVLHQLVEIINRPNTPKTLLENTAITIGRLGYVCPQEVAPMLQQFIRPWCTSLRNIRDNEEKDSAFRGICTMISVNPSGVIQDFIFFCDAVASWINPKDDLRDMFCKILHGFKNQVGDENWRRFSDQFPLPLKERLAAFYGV
Experiment: cell-based or functional assay

B1: EGFP-ULK2 WT (natural protein, human, UniProt Q8IYT8 1-1036, looked up)
chain: MEVVGDFEYSKRDLVGHGAFAVVFRGRHRQKTDWEVAIKSINKKNLSKSQILLGKEIKILKELQHENIVALYDVQELPNSVFLVMEYCNGGDLADYLQAKGTLSEDTIRVFLHQIAAAMRILHSKGIIHRDLKPQNILLSYANRRKSSVSGIRIKIADFGFARYLHSNMMAATLCGSPMYMAPEVIMSQHYDAKADLWSIGTVIYQCLVGKPPFQANSPQDLRMFYEKNRSLMPSIPRETSPYLANLLLGLLQRNQKDRMDFEAFFSHPFLEQGPVKKSCPVPVPMYSGSVSGSSCGSSPSCRFASPPSLPDMQHIQEENLSSPPLGPPNYLQVSKDSASTSSKNSSCDTDDFVLVPHNISSDHSCDMPVGTAGRRASNEFLVCGGQCQPTVSPHSETAPIPVPTQIRNYQRIEQNLTSTASSGTNVHGSPRSAVVRRSNTSPMGFLRPGSCSPVPADTAQTVGRRLSTGSSRPYSPSPLVGTIPEQFSQCCCGHPQGHDSRSRNSSGSPVPQAQSPQSLLSGARLQSAPTLTDIYQNKQKLRKQHSDPVCPSHTGAGYSYSPQPSRPGSLGTSPTKHLGSSPRSSDWFFKTPLPTIIGSPTKTTAPFKIPKTQASSNLLALVTRHGPAEEQSKDGNEPRECAHCLLVQGSERQRAEQQSKAVFGRSVSTGKLSDQQGKTPICRHQGSTDSLNTERPMDIAPAGACGGVLAPPAGTAASSKAVLFTVGSPPHSAAAPTCTHMFLRTRTTSVGPSNSGGSLCAMSGRVCVGSPPGPGFGSSPPGAEAAPSLRYVPYGASPPSLEGLITFEAPELPEETLMEREHTDTLRHLNVMLMFTECVLDLTAMRGGNPELCTSAVSLYQIQESVVVDQISQLSKDWGRVEQLVLYMKAAQLLAASLHLAKAQIKSGKLSPSTAVKQVVKNLNERYKFCITMCKKLTEKLNRFFSDKQRFIDEINSVTAEKLIYNCAVEMVQSAALDEMFQQTEDIVYRYHKAALLLEGLSRILQDPADIENVHKYKCSIERRLSALCHSTATV
nuclear-to-total fluorescence ratio (Fn/t) of EGFP-ULK2 WT in HEK293 cells, confocal microscopy (Fig 3D): 44.5

B2: Uncoordinated 51-like kinase 2 (ULK2), endogenous (natural protein, human (endogenous in HEK293), UniProt Q8IYT8 1-1036, looked up)
chain: B1 chain
nuclear-to-total fluorescence ratio (Fn/t) of endogenous ULK2 in FSK-treated HEK293 cells (normal DMEM-grown cells: 49.36+/−4.90), confocal microscopy (Fig 6Q): 52.7
nuclear-to-total fluorescence ratio (Fn/t) of endogenous ULK2 in H89-treated HEK293 cells (normal DMEM-grown cells: 49.36+/−4.90), confocal microscopy (Fig 6Q): 35.8

Next, values leading:

nuclear-to-total fluorescence ratio (Fn/t) of the EGFP-ULK2 PY-NLS (P794A) mutant in HEK293 cells, confocal microscopy (Fig 3D): 17.1
B3: EGFP-ULK2 PY-NLS mutant (P794A) (natural protein, human, UniProt Q8IYT8 1-1036, looked up)
chain: B1 chain with P794A

nuclear-to-total fluorescence ratio (Fn/t) of the EGFP-ULK2 P242A mutant in HEK293 cells, confocal microscopy (Fig 3D): 67.2
B4: EGFP-ULK2 P242A mutant (natural protein, human, UniProt Q8IYT8 1-1036, looked up)
chain: B1 chain with P242A
